Experimental findings from article PMC6859858 are described below.

Data set [1] concerns the target T1, CPSF-160;WDR33;CPSF-30;Fip1 (human;human;human;human, UniProt Q10570;Q9C0J8;O95639;Q6UN15 1-1443;1-425;1-269;159-200, |||). In words: fluorescence polarization.
Target sequence in this assay (Q10570 whole entry, chain 1 of 4, one chain of several): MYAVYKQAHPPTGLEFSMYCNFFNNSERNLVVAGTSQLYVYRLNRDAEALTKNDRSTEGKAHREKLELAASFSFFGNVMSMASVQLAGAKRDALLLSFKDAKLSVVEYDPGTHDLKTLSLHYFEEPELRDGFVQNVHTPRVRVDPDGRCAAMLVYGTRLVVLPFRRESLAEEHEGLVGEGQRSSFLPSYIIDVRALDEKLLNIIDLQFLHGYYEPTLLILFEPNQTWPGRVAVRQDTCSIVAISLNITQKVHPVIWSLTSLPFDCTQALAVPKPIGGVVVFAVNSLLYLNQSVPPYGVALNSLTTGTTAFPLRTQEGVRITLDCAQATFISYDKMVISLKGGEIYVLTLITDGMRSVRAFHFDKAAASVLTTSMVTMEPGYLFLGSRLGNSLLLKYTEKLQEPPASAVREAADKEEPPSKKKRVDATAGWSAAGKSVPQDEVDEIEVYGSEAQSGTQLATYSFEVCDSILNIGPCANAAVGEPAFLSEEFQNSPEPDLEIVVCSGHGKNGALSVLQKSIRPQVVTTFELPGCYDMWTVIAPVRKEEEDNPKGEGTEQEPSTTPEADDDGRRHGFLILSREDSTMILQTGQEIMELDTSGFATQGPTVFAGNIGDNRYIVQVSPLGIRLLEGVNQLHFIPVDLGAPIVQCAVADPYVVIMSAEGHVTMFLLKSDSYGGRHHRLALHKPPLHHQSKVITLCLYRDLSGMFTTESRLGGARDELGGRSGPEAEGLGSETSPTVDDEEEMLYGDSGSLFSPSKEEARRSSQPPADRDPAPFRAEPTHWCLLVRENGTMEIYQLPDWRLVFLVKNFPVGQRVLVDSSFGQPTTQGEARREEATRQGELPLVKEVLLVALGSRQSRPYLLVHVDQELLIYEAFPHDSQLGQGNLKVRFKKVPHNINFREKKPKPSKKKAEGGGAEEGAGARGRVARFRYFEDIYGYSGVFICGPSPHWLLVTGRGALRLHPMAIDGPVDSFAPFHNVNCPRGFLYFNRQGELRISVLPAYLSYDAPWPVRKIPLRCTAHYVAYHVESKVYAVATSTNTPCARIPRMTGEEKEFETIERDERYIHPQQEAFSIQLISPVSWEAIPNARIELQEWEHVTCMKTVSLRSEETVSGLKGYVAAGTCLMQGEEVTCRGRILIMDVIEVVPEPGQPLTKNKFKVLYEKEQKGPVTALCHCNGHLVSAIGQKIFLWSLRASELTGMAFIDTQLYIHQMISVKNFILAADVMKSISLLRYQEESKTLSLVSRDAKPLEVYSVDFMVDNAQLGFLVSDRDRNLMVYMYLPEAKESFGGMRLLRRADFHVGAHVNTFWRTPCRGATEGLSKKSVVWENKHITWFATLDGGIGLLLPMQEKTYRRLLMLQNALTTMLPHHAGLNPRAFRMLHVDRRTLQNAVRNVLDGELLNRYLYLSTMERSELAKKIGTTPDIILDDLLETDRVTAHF
Target sequence in this assay (Q9C0J8 1-425, chain 2 of 4, one chain of several): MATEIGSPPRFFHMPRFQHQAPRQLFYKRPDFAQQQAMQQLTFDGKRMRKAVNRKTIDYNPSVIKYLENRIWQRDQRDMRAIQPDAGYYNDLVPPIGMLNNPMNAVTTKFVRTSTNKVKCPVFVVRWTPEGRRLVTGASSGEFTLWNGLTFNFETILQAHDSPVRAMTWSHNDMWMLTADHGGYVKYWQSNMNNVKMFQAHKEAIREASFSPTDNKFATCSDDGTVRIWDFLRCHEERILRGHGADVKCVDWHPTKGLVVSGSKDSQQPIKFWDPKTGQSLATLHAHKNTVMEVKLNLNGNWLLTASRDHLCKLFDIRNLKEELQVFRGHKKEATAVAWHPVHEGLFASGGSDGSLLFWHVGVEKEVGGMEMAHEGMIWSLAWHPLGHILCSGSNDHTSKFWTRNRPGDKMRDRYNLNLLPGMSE
Target sequence in this assay (O95639 whole entry, chain 3 of 4, one chain of several): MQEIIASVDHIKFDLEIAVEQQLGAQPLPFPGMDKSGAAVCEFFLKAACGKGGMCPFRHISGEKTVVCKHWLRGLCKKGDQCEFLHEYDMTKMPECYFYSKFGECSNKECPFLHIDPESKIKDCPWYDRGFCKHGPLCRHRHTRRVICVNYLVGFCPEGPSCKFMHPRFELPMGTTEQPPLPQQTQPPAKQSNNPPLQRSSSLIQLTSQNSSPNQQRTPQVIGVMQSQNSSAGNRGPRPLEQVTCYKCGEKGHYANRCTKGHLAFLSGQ
Data set [2] has as its target T1, CPSF-160;WDR33;CPSF-30;Fip1. In words: competition fluorescence polarization. Background: Polarisation of emitted light reports the rotation of a fluorescent probe.
Target sequence in this assay (Q10570 whole entry, chain 1 of 3): as the sequence (Q10570 whole entry, chain 1 of 4, one chain of several) above
Target sequence in this assay (Q9C0J8 1-425, chain 2 of 3): as the sequence (Q9C0J8 1-425, chain 2 of 4, one chain of several) above
Target sequence in this assay (O95639 whole entry, chain 3 of 3): as the sequence (O95639 whole entry, chain 3 of 4, one chain of several) above
The target is the same in data set [3]. In words: competition fluorescence polarization. This is another data set of the same source.
Target sequence in this assay (Q10570 whole entry, chain 1 of 4, one chain of several): as the sequence (Q10570 whole entry, chain 1 of 4, one chain of several) above
Target sequence in this assay (Q9C0J8 1-425, chain 2 of 4, one chain of several): as the sequence (Q9C0J8 1-425, chain 2 of 4, one chain of several) above
Target sequence in this assay (O95639 whole entry, chain 3 of 4, one chain of several): as the sequence (O95639 whole entry, chain 3 of 4, one chain of several) above
The target of the next data set is CPSF-160;WDR33;CPSF-30 (human;human;human, UniProt Q10570;Q9C0J8;O95639 1-1443;1-425;1-269, ||). In words: fluorescence polarization.
In the next data set the target is T2, Fip1 (human, UniProt Q6UN15 159-200).
T2 chain: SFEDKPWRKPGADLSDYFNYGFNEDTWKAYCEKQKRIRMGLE
In words: fluorescence polarization.

For data set [4], the target named is T1, CPSF-160;WDR33;CPSF-30;Fip1. In words: fluorescence polarization. The source holds these as a separate data set.
Target sequence in this assay (Q10570 whole entry, chain 1 of 3): as the sequence (Q10570 whole entry, chain 1 of 4, one chain of several) above
Target sequence in this assay (Q9C0J8 1-425, chain 2 of 3): as the sequence (Q9C0J8 1-425, chain 2 of 4, one chain of several) above
Target sequence in this assay (O95639 whole entry, chain 3 of 3): as the sequence (O95639 whole entry, chain 3 of 4, one chain of several) above
Data set [5] has as its target CPSF-160;WDR33;CPSF-30 H70A;Fip1 (human;human;human;human, UniProt Q10570;Q9C0J8;O95639;Q6UN15 1-1443;1-425;1-269;159-200, ||H70A|). In words: fluorescence polarization.
The target of data set [6] is CPSF-160;WDR33;CPSF-30 F84A;Fip1 (human;human;human;human, UniProt Q10570;Q9C0J8;O95639;Q6UN15 1-1443;1-425;1-269;159-200, ||F84A|). In words: fluorescence polarization.
For data set [7], the target named is CPSF-160;WDR33;CPSF-30 F112A;Fip1 (human;human;human;human, UniProt Q10570;Q9C0J8;O95639;Q6UN15 1-1443;1-425;1-269;159-200, ||F112A|). In words: fluorescence polarization.
The target in data set [8] is CPSF-160;WDR33;CPSF-30 R73A;Fip1 (human;human;human;human, UniProt Q10570;Q9C0J8;O95639;Q6UN15 1-1443;1-425;1-269;159-200, ||R73A|). In words: fluorescence polarization.
For data set [9], the target named is T1, CPSF-160;WDR33;CPSF-30;Fip1. In words: fluorescence polarization. The source holds these as a separate data set.
Target sequence in this assay (Q10570 whole entry, chain 1 of 4, one chain of several): as the sequence (Q10570 whole entry, chain 1 of 4, one chain of several) above
Target sequence in this assay (Q9C0J8 1-425, chain 2 of 4, one chain of several): as the sequence (Q9C0J8 1-425, chain 2 of 4, one chain of several) above
Target sequence in this assay (O95639 whole entry, chain 3 of 4, one chain of several): as the sequence (O95639 whole entry, chain 3 of 4, one chain of several) above

B1: 6-mer AAUAAA, FAM (ssRNA)
RNA: AAUAAA
modifications: 3' phosphate linking the FAM
What is called Kd is the free concentration of one partner at which half of the binding sites on the other are occupied at equilibrium, for simple one-to-one binding. Read a low Kd as a tighter complex. B1 had a Kd in data set [1] of 8050 ± 450 pM.

B2: 7-mer AAUAAAC, unlabeled (ssRNA)
RNA: AAUAAAC
Take B2: the binding signal in [2] is 35 fold higher Kd than 11-mer.

B3: 11-mer AAUAAA PAS, FAM (ssRNA)
RNA: CAAUAAACAAC
As to B3, in data set [1], the affinity, expressed as Kd, was 320 ± 40 pM.

B4: 8-mer AAUAAA, unlabeled (ssRNA)
RNA: CAAUAAAC
As for B4, binding in data set [3] was characterised by a dissociation constant (Kd) of 57000 ± 18000 pM.

B5: 17-mer AAUAAA PAS (ssRNA)
RNA: AACCUCCAAUAAACAAC
For B5, the results for the Kd (with CPSF-160;WDR33;CPSF-30; in data set [1]; in data set [9]) were 250 ± 50 pM, 280 ± 70 pM and 190 ± 30 pM, respectively. Also, in the data set with Fip1, the binding result is “no binding”. Moreover, the binding signal in data set [4] is 3 fold higher Kd than maximal binding; in data set [5], 90 fold higher Kd than wild type; in data set [6], 8 fold higher Kd than wild type; in data set [7] it was 140 fold higher Kd than wild type; in [8] it was 17 fold higher Kd than wild type.
